# Test: soluble on expression in E. coli; label from the status in PepcDB or PDB records
row,Sequence,soluble on expression in E. coli
1,ARGHRHTCKVMVLKEEAAGSERALALDMREGQRVFHSLIVHFENDIPVQIEDRFVNAQVAPDYLKQDFTLQTPYAYLSQVAPLTEGEHVVEAILAEADECKLLQIDAGEPCLLIRRRTWSGRQPVTAARLIHPGSRHRLEGRFTK,soluble
2,MTARNPLEAQAWALLEAVYDPELGLDVVNLGLIYDLVVEPPRAYVRMTLTTPGCPLHDSLGEAVRQALSRLPGVEEVEVEVTFEPPWTLARLSEKARRLLGWG,soluble
3,AHHHHHHGSQRLEESTSCRGVGDMRKAIIVGVGMTPVGEHWRSSLRDLAVEAILNAMDDAGIDKVDSLYVGNMASGSFVEQENLGALIADWAGLGNIPAVKIEAACASGGAAVQEGAKAVLSGLEDVVLVVGVEKMTDAWPSDATRYLGYAADAEWELFHGASFVALNALIMRLYMNTYGYKEEDLALFAVNAHANGAKNPYAMFKKPITVETVMKSPYIADPLKLFDASPVCDGAAAVIITTPEKAKELGIPKDKWIEIAGMGRAIDTINLANREDFLTLKAATIAAERAYKMAGVKPEDVDFFEVHDAFTVMAALSLEALGVAKKGEGAKLAIEGQIAIDGDYPIQTMGGLKARGHPVGATGVYQVVEAVLQLRGEAPDGIQVPDAEVGLTQNIGGTGSNITVTVLRRV,soluble
4,MTDNPAVDKRDQILAAAEQLIAESGFQGLSMQKLANEAGVAAGTIYRYFSDKEHLLEEVRLNVAKRIASAVQAGVNDDMPLKECYRTMWLNIWNLAGSNLNAISNRVQYDSLPCTTRNKTWELERKMFAQVDRLFNQGKEEGVFKPLDNEVLSGLSFEASVALARKHALGFYQLDDDALEAAIEASWDAIIKH,soluble
5,MFRSSLTHLQAVSRVFIMGGHITPFVGKGSKLFIDKKHPDFGKKQNMTLEEILATTVQHTIENTGLNGKEDIVDQVVVGNFLGELFSSQGHLGPAAIGSLTYGQAGAKNPLMYKPAMRVEGACASGGLAVVSATNALKAGSADIALAVGVEVQTTATARVGGDYLARAADYQRQRKLDDFTFPCLFAKRMKYIAEHNHFTMEDTARVAAKAYANGNRNPLAHMHTRKLSFEQCNGEDPSNVKFLGNETYKEYLRMTDCSQVSDGGAGVVLANEEGLKKMGLSPNDSRLVEIKSIACAVSNLYEDPDDACCMFTSRQAAQKALSMANVKPSDLNVAEVHDCFTIAEMLMYEALGIAEYGHAKDLIRNGETTLEGRIPVNTGGGLLSFGHPVGATGIKQVMEVYRQMKGQCGAYQMKKIPALGATLNMGGDDKTAVSAVLQNI,not soluble
6,MHERLNFPKVELHLHLDGAVRFDTLIDLSQQKGIPLAGAKTVEELKKVLVTHEPANLSKVLEAFEIFLPVIRGDLAAIERVAYELCEDQHNNGVVYFEGRYSPHLLLCNDYPEVTAAHVVAAVKKGFDRGEKQFGIKARSILCCIRGLDKKFPQLILDLATDLKQLGVVAIDVAGSAHGADEQYEPEVVAAFQEAHKRGIHRTVHAGESGGPKEVIKAIEDMYAERIGHGYRVMRDEEMYLEHFVNSKNVHLEACPYSSVMTGAVPLDWKNHPIARWAKDDVNFSVSRDDPTCFDNSMLSELTLVHKQIGLDVHQLWKAQLNAARSCFLPEDEKAELVKRVEAGEPPRP,not soluble
7,MSLENLARFLSTTLKQLRQQRGWSLSRLAEATGVSKAMLGQIERNESSPTVATLWKIATGLNVPFSTFISPPQSATPSVYDPQQQAMVITSLFPYDPQLCFEHFSIQMASGAISESTPHEKGVIEHVVVIDGQLDLCVDGEWQTLNCGEGVRFAADVTHIYRNGGEQTVHFHSLIHYPRSEGGSHHHHHH,soluble
8,MSLSKNDHRITHNKSDKDNLDDDFSLFRDEVKGVKKLRQDTILHAPNRNPKQKEIRRTEREASDNDFYFSDEFMPHLTDEGPTRYARSDVSKYEVKRLRRGVYVPDVFLDMHGMTQQEAKRELGAMIAYCLKENVHCACVQHGIGKHILKQNVPLWLAQHPDVLAFHQAPLEFGGDGALLVLLSIPEKEGHHHHHH,soluble
9,MSHYQCAVCSSIDANPNSLAVNYQCLADSSVVGEFHVLPRHQGYTDLLHGGIASSLLDGAMTHCLLFRDIQALTAQLDVRYHAPIELDEHVTITAHCEGERRGIYQLVAQLLVNNEVRVTAKGKFIRPKLEHHHHHH,soluble
10,MSLIDIHSHIVFDVDDGPKSREESKALLAESYRQGVRTIVSTSHRRKGMFETPEEKIAESFLQVREIAKEVADDLVIAYGAEIYYTPDVLDKLGKKRIPTLNDSRYALIEFSMNTPYRDIHSALSKILMLGITPVIAHIERYDALGNNEKRVRELIDMGCYTQVNSSHVLKPKLFGERYKFMKKRAQYFLEQTLVHVIASDMHNLDGRPPHMAEAYDFVTQKYGEAKAQELFIDNPRKIIMDQLIEGGSHHHHHH,soluble
11,METPLEKALTTMVTTFHKYSGREGSKLTLSRKELKELIKKELCLGEMKESSIDDLMKSLDKNSDQEIDFKEYSVFLTMLCMAYNDFFLEDNK,soluble
12,MSKQQPTQFINPETPGYVGFANLPNQVHRKSVKKGFEFTLMVVGESGLGKSTLINSLFLTDLYPERVIPGAAEKIERTVQIEASTVEIEERGVKLRLTVVDTPGYGDAINCRDCFKTIISYIDEQFERYLHDESGLNRRHIIDNRVHCCFYFISPFGHGLKPLDVAFMKAIHNKVNIVPVIAKADTLTLKERERLKKRILDEIEEHNIKIYHLPDAESDEDEDFKEQTRLLKASIPFSVVGSNQLIEAKGKKVRGRLYPWGVVEVENPEHNDFLKLRTMLITHMQDLQEVTQDLHYENFRSERLKRGGRKVENEDMNKDQILLEKEAELRRMQEMIARMQAQMQMQMQGGDGDGGALGHHV,soluble
13,MGSDKIHHHHHHMKAVILAAGRGSRLQALTDERPKALVPFNGVPLLQRAIETLRRCDVSEVGIVAGYRSEMLAPFADTLFYNHRWHSSGIFSSLNCASDWLSAEPCLVSYGDIFYDSTLVSELINHPADIVLGYDPAAVRLWQQRFNDPLPDLENFRLVDGWVSAIGQTATSLEVIQGQYMGLFKVTPAGWQALKKQLQGLTPQARDQTDMTSLLGTLVSEGFPVAGVATHAPWGEIDCPSDVALYERIYPDR,not soluble
14,MSQEIYDYANQLERAVRALPEYQKVLEVKEAIQADVSASELFDEFVAMQEKIQGMMQSGQMPTAEEQTSIQELSQKIEANDQLKAYFEAQQALSVYMSDIERIVFAPLKDLVK,not soluble
15,MSLTGREKNPSLTAKELEGGLLIVDEMSMVDTWLANTLLKAIPTNMQVIFVGDKDQLPSVGPGQVLHDLLQINEIPKCELNEIYRQGDGSSIIPLAHEIKEGKLPADFQKNQKDRSFFASDIGHIEEYIRQIVTKAKAKGFTPQDIQVLAPMYRGAAGIDALNKMMQEIFNPNDGKKKEVKWNDTVYRIGDKVLQLVNTPELNVFNGDMGEIVGITLAKDSEDKVDELVLQFDNNEVTYKRNEWNKITLSYCCSIHKAQGSEFRMVLLPMVHQYSRMLQRNLLYTAVTRSKELLILLGEVSAFETCVKNESASRMTMLKERIVNAEQEGHHHHHH,not soluble
16,MSLQPVAKTEQPEGGILYDFGKETFGFITLKNLSGKGKIDLYYGESPEEAKDKAYCETLDKLLLEPGQITDLAIRSTSPLHHSDNEYTLENSKAFRYVYITHEPEVQIGEVSMQYEYLPEEYRGNFRCNDEELNCIWEVGAYTMHLTTREFFIDGIKRDRWVWSGDAIQSYLMNYYLFFDSESVKRTIWLLRGKDPVTSHSNTIMDYTFYWFLSVYDYYMYSGDRHFVNQLYPRMQTMMDYVLGRTNKNGMVEGMSGDWVFVDWADGYLDKKGELSFEQVLFCRSLETMALCADLVGDKDGQQKYEKLASALKAKLEPTFWNNQKQAFVHNCVDGRQSDAVTRYANMFSVFFDYLNADKQQAIKQSVLLNDEILKITTPYMRFYELEALCALGEQETVMKEMKAYWGGMLKAGATSFWEKYNPEESGTQHLAMYGRPYGKSLCHAWGASPIYLLGKYYLGVKPTKEGYKEFAVSPVLGGLKWMEGTVPTPNGDIHVYMDNKTIKVKATEGKGYLTIQSRRQPKANMGTVEKVSEGVWRLWIDSPEERIVTYRLEGHHHHHH,soluble
17,MATRGPTPDKARMGLPDRWLHCPKTGTLINNLFFPFKTPLCKMYDNQIAERRYQFHPAEVFSHPHLHGKKIGLWIDLTNTDRYYFREEVTEHECIYHKMKMAGRGVSPTQEDTDNFIKLVQEFHKKYPDRVVGVHCTHGFNRTGFLIAAYLFQVEEYGLDAAIGEFAENRQKGIYKQDYIDDLFARYDPTEDDKILAPEKPDWEREMSIGMSTQIDNGRPSTSQQIPATNGNNNQNGNQLSGGGDNSKLFMDGLIRGVKVCEDEGKKSMLQAKIKNLCKYNKQGFPGLQPVSLSRGNINLLEQESYMVSWKADGMRYIIYINDGDVYAFDRDNEVFEIENLDFVTKNGAPLMETLVDTEVIIDKVEINGAMCDQPRMLIYDIMRFNSVNVMKEPFYKRFEIIKTEIIDMRTAAFKTGRLKHENQIMSVRRKDFYDLEATAKLFGPKFVQHVGHEIDGLIFQPKKTKYETGRCDKVLKWKPPSHNSVDFLLKVEKKCKEGMLPEWIGYLFVQNLSDPFGTMKATATLKKYHNKIIECTLLVDNQGRPKEWKFMRERTDKSLPNGLRTAENVVETMVNPVTETYLIEYVNHALRVLKRAAAAHRHHQIHQQQLHEGEPEARRQKL,not soluble
18,MGSDKIHHHHHHMEFIEFGYGTSTDENSLKAGAHAASDALKMMKKYSEKPNIVFLYSSPDYDPEEVLNGVKLILGNSVQIVGGSSKFQICGNKFLENGVSVGILGSKYFNTGMGVGLGISINPKESGKKAVKDAVENLGMLPKLLYVITDFCKCEEQVLKGIIEELGVTIPIFGGVSSDDFEFEHTYQYGNDVYLDSIVCVAFGGDIVPKISYNNYEYGENSGKLENIITKSEKRSIEEIGNISAVKRYIEISGYKGTVNELEKDPEFYLSHPLGILDTTGDIHLKGPISIKNKKLITGSNISNSNELKIENIDKNAIKNIFETNTSVLNNTQPHYEPALTFCNISSFLSEINPDEIEKLIEKSDINPFFGSSTFGEISLKKYGNYSMSMCSFAPDLVTISAKEGIHMFTKHPATKETLIKIHELGGSVKVEELAKSLGIHRRSAYDRIDPLLKYGFIEKDQAVIKITEFGKLLLKFEF,not soluble
19,MGSDKIHHHHHHMSVPRWVAERTGLPRTAHDAGTIGAAGCTVNRFAVALMPDSGGHPRKPIAGVDAPPPHLLLVARRMTRPGEHMALTTYTPVITVFAAGREWTLERAADLQTLWDNMVEADFGDDERLPYWTELWPSSLVLADWLHDNAGRIRGRTCLDMGCGLGLCSLVGQWLGARVTGMDYEPEALFHARRNAERNRVPQPLWTVMDWRAPAVRRHAADLVWGGDIMYERRFVTPVLDFLDHVLAPCGAAWVAEPGRTVYNHFRETLDARGWHARRVLSSETASLYEQPESVTVHLWEITR,not soluble
20,MPLNKLIQDGDNQDLTDERFKATFDTDALAAVFHGGEDALKRIRELRDEVTKRWHLFDALPGAHRTRAERMEDVSRKLKNLMESVGEFADFTNNLDMLVIIRDVMGIEGFPLALHNLMFVPTIQNQADDEQTEWWLMDALQGKIIGTYAQTELGHGTNLGAIETTATYDKLTEEFIIHTPTTTATKWWPGGLGTSCTHVVLVANLIIDTKNYGLHPFFVPIRDRNSYSVMSGVRVGDIGTKMGVNCVDNGFLAFDNYRIPRRNMLMKHSKVSKEGLYTAPSHPKVGYTTMLYMRSEMIYHQAYYLAMAMAISIRYSAVRRQGEIKPGTQEVQILDYQTQQYRIFPGLARCFAFNTAAATVRQMTENCIKQLSHGNSDVLADLHALSCGLKAVVTHQASQSIDQARQACGGHGYSDASYLPTLYTCSVGACTYEGENMVMLLQLSKYLMKAAAKAEKGEEMAPLVAYLVKPDITETNDKFAKMLSHFEHIARHRVMHAYRQMIEEEKQGIERDYAFANHSVDWTKAARAHTKLFIARGFVKSVQEVSDEAVHDVLTTLAELYLSYELIEMSADLTANGYLSESDVQQIRHQIYDSMRKTRRNAVSIVDSFDICDRELRSVLGRRDGHVYENLYKWAQMSPLNERNLPHVEKYLKPMTSKL,not soluble
